± gives the standard deviation of the averaged measurements.
Test system: ATP
Assay: switch fluorescence ratio, 500 uM ATP over buffer (Cy3 cluster intensity, sum of 5 cycles each) (fold (ratio)); higher = stronger signal-on switching upon ATP binding; sequences stand for … in TCGTCGGCAGCGTCAGATGTGTATAAGAGACAGTTTTTTTTTTTTTTTTTTTTTTTTT…TC
Conditions: aptamer strand: ATP DNA aptamer (quencher-CACCTGGGGGAGTATTGCGGAGGAAGG + anchor), 100 nM annealed; ATP concentration: 500 uM
How it was run: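 Cy3-labelled switching-strand clusters on a modified Illumina MiSeq flow-cell were annealed to 100 nM quencher-labelled ATP aptamer, imaged in selection buffer, then imaged after 15 min with 500 uM ATP at 22 °C. Five buffer/ATP cycles ran, with NaOH stripping and re-annealing between them. The fluorescence ratio is summed target-cycle over summed buffer-cycle Cy3 intensity per cluster, averaged per switch-domain sequence. Clusters outside 100-1000 RFU were excluded.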
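Also: ATP exposure 15 min at 22 °C before imaging.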

Sequence	switch fluorescence ratio
TCCAGGGGAG	1.13 ± 0.032
TCCAGGGGTG	1.65 ± 0.025
TCCAGGGTGC	1.93 ± 0.37
TCCAGGTGAC	4.19 ± 0.38
TCCAGTATTA	0.9945 ± 0.0042
TCCAGTGGAA	0.989 ± 0.044
TCCATAATAG	1.16 ± 0.028
TCCATACCAC	1.03 ± 0.032
TCCATCAGCT	1.1 ± 0.025
TCCATGTTCT	0.992 ± 0.034
TCCATTGGTG	1.2 ± 0.025
TCCCAAAGGG	1.63 ± 0.91
TCCCAATGCT	4.02 ± 0.55
TCCCCAGGGG	1.1 ± 0.11
TCCCCCCCTT	1.41 ± 0.58
TCCCCGTTTC	1.65 ± 0.75
TCCCGAATTT	1.02 ± 0.016
TCCCGCGGCG	1.08 ± 0.041
TCCCGGGGGA	2 ± 1.2
TCCCGGGTCT	0.992 ± 0.029
TCCCGGGTTT	1.1 ± 0.14
TCCCGTTTTT	1.02 ± 0.065
TCCCTAAAAG	0.9896 ± 0.0049
TCCCTCTCCG	1.27 ± 0.36
TCCCTTTAGT	1.01 ± 0.024

Sequence	switch fluorescence ratio
TCCGAACTCG	1.22 ± 0.019
TCCGACTCTT	1.53 ± 0.72
TCCGACTGGT	1.127 ± 0.0014
TCCGCGGCTT	2.12 ± 1.5
TCCGCGGGTG	1.61 ± 0.82
TCCGCGTACG	2.75 ± 0.056
TCCGGAATGG	4.16 ± 0.47
TCCGGAGTTT	2.55 ± 0.38
TCCGGATATA	1.065 ± 0.004
TCCGGCAAGT	2.17 ± 0.13
TCCGGCTACC	1.38 ± 0.039
TCCGGGAAGC	1.24 ± 0.035
TCCGGGATAT	2.23 ± 0.98
TCCGGGCGGA	1.01 ± 0.021
TCCGGGGGAC	1.52 ± 0.59
TCCGGGGGGT	1.05 ± 0.025
TCCGGGGTAA	1.37 ± 0.51
TCCGGGGTTT	1.02 ± 0.056
TCCGGGTTTG	1.02 ± 0.037
TCCGGTTAGT	1.04 ± 0.015
TCCGTATTTT	1.29 ± 0.41
TCCGTCAATG	1.63 ± 0.07
TCCGTTGTGG	0.991 ± 0.037
TCCGTTTGTG	1 ± 0.024
TCCTAAATGT	0.976 ± 0.048

Sequence	switch fluorescence ratio
TCCTACGTTT	1.75 ± 0.86
TCCTAGCGCC	2.02 ± 0.2
TCCTAGGGGA	1.03 ± 0.0033
TCCTATAAAA	0.987 ± 0.032
TCCTCGGGGC	1.6 ± 0.095
TCCTGACGTC	1.043 ± 0.0039
TCCTGATTAT	0.989 ± 0.011
TCCTGCAAGG	1.07 ± 0.05
TCCTGGCAAA	1.59 ± 0.6
TCCTGGGGGC	1.02 ± 0.058
TCCTGGTTTT	0.996 ± 0.046
TCCTGTTCCT	1.02 ± 0.062
TCCTTGACGA	1.06 ± 0.013
TCCTTGCTTT	1.1 ± 0.025
TCCTTGGGGT	1.73 ± 0.97
TCCTTTGCGT	1.55 ± 0.39
TCCTTTTAAT	1.045 ± 0.0012
TCCTTTTGT	1.02 ± 0.068
TCCTTTTGTT	1.06 ± 0.15
TCCTTTTTGC	1.07 ± 0.069
TCCTTTTTGT	1.41 ± 0.54
TCGAAAATCG	1 ± 0.049
TCGAAAGAGA	1.02 ± 0.025
TCGAAAGCTT	1.34 ± 0.42
TCGAAAGTCT	0.995 ± 0.012

Sequence	switch fluorescence ratio
TCGAAATCAC	1.32 ± 0.046
TCGAACTCTT	1.03 ± 0.021
TCGAACTGGG	1.007 ± 0.0091
TCGAAGTTGT	1.01 ± 0.022
TCGAATATTG	0.9849 ± 0.004
TCGAATGGGC	0.98 ± 0.037
TCGAATGGGT	1.02 ± 0.013
TCGAATTCGC	1.0071 ± 8.5e-05
TCGACATCGG	1.016 ± 0.0061
TCGACGCGCC	5.12 ± 0.52
TCGACGGGCG	1.03 ± 0.02
TCGACTATTT	1.04 ± 0.046
TCGAGAAAGG	0.98962 ± 0.00052
TCGAGCCATA	1.08 ± 0.046
TCGAGCGCAC	2.54 ± 0.34
TCGAGCTGAA	1.018 ± 0.0016
TCGAGGGGTC	1.06 ± 0.075
TCGAGGGGTG	1.01 ± 0.039
TCGAGTCTTT	0.998 ± 0.015
TCGAGTTTGT	1.01 ± 0.022
TCGAGTTTTT	0.996 ± 0.02
TCGATAGTTC	1.03 ± 0.028
TCGATCAACG	0.9909 ± 0.0013
TCGATCTACT	1.06 ± 0.024
TCGATGATCG	0.963 ± 0.046

Sequence	switch fluorescence ratio
TCGATGATGG	1.05 ± 0.013
TCGATTAGGG	1.04 ± 0.017
TCGATTATTT	1.016 ± 0.0059
TCGATTGGCG	1.07 ± 0.1
TCGCAAATTT	1.3 ± 0.12
TCGCATGTCT	1.11 ± 0.098
TCGCATTCGT	1.25 ± 0.026
TCGCATTGAG	1.1 ± 0.011
TCGCCAAATT	1.1 ± 0.21
TCGCCATTGT	1.02 ± 0.03
TCGCCGGGCG	0.993 ± 0.0075
TCGCCTGTTT	1.003 ± 0.0036
TCGCGATAAA	1.06 ± 0.017
TCGCGCATTG	1.14 ± 0.13
TCGCGCCTTG	1.01 ± 0.021
TCGCGGGGGG	0.976 ± 0.034
TCGCGTGGTA	0.989 ± 0.038
TCGCGTTCGG	1.02 ± 0.013
TCGCTATAGC	1.02 ± 0.067
TCGCTGAATA	1.04 ± 0.052
TCGCTGAGTG	1.08 ± 0.12
TCGCTTACAT	1.0488 ± 0.00048
TCGGAAATGT	1.12 ± 0.14
TCGGAATGGG	0.975 ± 0.017
TCGGACGGGT	1.02 ± 0.025

Sequence	switch fluorescence ratio
TCGGACTATA	1.06 ± 0.033
TCGGACTGAG	0.968 ± 0.029
TCGGACTTTA	0.998 ± 0.042
TCGGAGAGTC	1.26 ± 0.53
TCGGAGGA	1.03 ± 0.048
TCGGAGTTTG	0.9963 ± 0.0024
TCGGCCCGTT	1.01 ± 0.018
TCGGCCGGAA	1.08 ± 0.025
TCGGCGGGGT	1.75 ± 1.3
TCGGCGTTGA	0.992 ± 0.02
TCGGCTAAAT	1.003 ± 0.0063
TCGGCTTTGA	1.01 ± 0.03
TCGGGAATTG	1.04 ± 0.085
TCGGGCCGG	0.994 ± 0.023
TCGGGCCTGT	1 ± 0.034
TCGGGCTAGC	0.986 ± 0.012
TCGGGGAGCG	0.949 ± 0.042
TCGGGGCAGC	0.998 ± 0.042
TCGGGGCGAA	1.85 ± 1.3
TCGGGGCTAG	0.989 ± 0.025
TCGGGGGATG	0.987 ± 0.019
TCGGGGGATT	0.966 ± 0.028
TCGGGGGTGT	1.02 ± 0.029
TCGGGGGTTA	1.01 ± 0.023
TCGGGGGTTG	0.996 ± 0.056

Sequence	switch fluorescence ratio
TCGGGGTACG	1.01 ± 0.015
TCGGGGTTAT	1.04 ± 0.083
TCGGGGTTCT	1.01 ± 0.0064
TCGGGGTTTG	1 ± 0.016
TCGGGTAAGA	1.04 ± 0.026
TCGGGTACTT	1.04 ± 0.055
TCGGGTAGTT	1.04 ± 0.055
TCGGGTCTGT	0.979 ± 0.025
TCGGGTGGTA	1.05 ± 0.097
TCGGTAGGG	0.9717 ± 0.003
TCGGTAGGGA	0.96 ± 0.021
TCGGTAGTTA	1.01 ± 0.047
TCGGTATTGG	1.09 ± 0.1
TCGGTCGGGA	1.022 ± 0.0017
TCGGTCTTTT	0.974 ± 0.029
TCGGTGATTG	0.991 ± 0.016
TCGGTGGGGT	0.982 ± 0.0061
TCGGTGGGTG	1.012 ± 0.0066
TCGGTTAGTG	0.991 ± 0.036
TCGGTTGGTG	0.969 ± 0.042
TCGGTTGTCC	0.978 ± 0.018
TCGGTTTTAA	1.01 ± 0.036
TCGGTTTTTT	1.01 ± 0.038
TCGTAAACTT	1.025 ± 0.005
TCGTAACTGT	1.03 ± 0.016

Sequence	switch fluorescence ratio
TCGTAAGGGT	1.18 ± 0.26
TCGTACACGT	0.978 ± 0.015
TCGTACAGTA	1.02 ± 0.029
TCGTACGTTG	1.01 ± 0.022
TCGTACTTAT	1.12 ± 0.18
TCGTAGGCAT	1.004 ± 0.0036
TCGTAGTCGT	0.995 ± 0.064
TCGTATCAAG	0.969 ± 0.026
TCGTATGTTA	0.97 ± 0.014
TCGTATTGGG	1 ± 0.056
TCGTCAAGTT	1.007 ± 0.01
TCGTCAGCGA	2.77 ± 0.06
TCGTCAGTG	0.991 ± 0.012
TCGTCGCGTA	0.978 ± 0.14
TCGTCGGGGA	1.01 ± 0.014
TCGTCGGTGG	1 ± 0.011
TCGTCGTCCT	1.02 ± 0.024
TCGTCTGGTT	0.988 ± 0.03
TCGTGACTGT	1.02 ± 0.065
TCGTGCTACA	0.97 ± 0.041
TCGTGGCGAG	1.01 ± 0.028
TCGTGGCTGT	1 ± 0.042
TCGTGGGAGC	1.014 ± 0.0089
TCGTGGGGAT	1 ± 0.021
TCGTGGGTGG	1.03 ± 0.056
